Source: patent CN114904015A (JIANGSU MAIWEIKANG NEW DRUG RES AND DEVELOPMENT CO LTD, dated 2022)
Where a chain is given by its changes, count along the chain named.

B1: 8k13-hz35 (antibody, IgG1, V domains shown)
VH: EVQLVQSGAEVKKPGSSVKVSCKASGYAFSNYWMNWVRQAPGQGLEWMGQIYPGSGDTKYSGKFQSRVTITADKSTSTAYMELSSLRSEDTAVYYCARFYYGNVMDYWGQGTLVTVSS
VL: DIVLTQSPDSLAVSLGERATINCKSSQTLLSGGNQKNYLTWYQQKPGQPPKLLIYWASTRESGVPDRFSGSGSGTDFTLTISSLQAEDVAVYYCQQGYSYPLTFGQGTKLEIK
notes: Humanised IgG1 / kappa; also called 本发明的裸抗-2; hz8k13-hz35; not shown: human kappa light chain constant region
B2: 16k15-hz35 (antibody, IgG1, V domains shown)
VH: EVQLVESGGGLVQPGGSLRLSCAGSGITLSTYAMSWVRQAPGKGLEWVSSIISGGITYYLDSVKGRFTISRDNAKNTLYLQMNSLRAEDTAVYYCARKYHGNALDYWGQGTLVTVSS
VL: B1 VL with L4M, T28S, G32S, K36R, L52K, G97N, S99F
notes: Humanised IgG1 / kappa; also called 本发明的裸抗-1; not shown: human kappa light chain constant region
B3: 8k13-hz24 (antibody, V domains shown, not shown: large carriers)
VH: B1 VH with E1Q, S77N
VL: B1 VL with V89L
B4: 16k15-hz22 (antibody, V domains shown, not shown: large carriers)
VH: B2 VH with N83S
VL: B1 VL with L4M, T28S, G32S, K36R, L52K, V89L, Q96N, G97N, S99F
B5: IMAB362 (antibody, human IgG1, kappa, V domains shown)
VH: QVQLQQPGAELVRPGASVKLSCKASGYTFTSYWINWVKQRPGQGLEWIGNIYPSDSYTNYNQKFKDKATLTVDKSSSTAYMQLSSPTSEDSAVYYCTRSWRGNSFDYWGQGTTLTVSS
VL: DIVMTQSPSSLTVTAGEKVTMSCKSSQSLLNSGNQKNYLTWYQQKPGQPPKLLIYWASTRESGVPDRFTGSGSGTDFTLTISSVQAEDLAVYYCQNDYSYPFTFGSGTKLEIKR

Experiments:
[1] = biological target: T1, 人CLDN18.2 (human CLDN18.2), expressed on the cell surface (human, UniProt P56856-2 1-261); test: FACS (MFI) on CHO/CLDN18.2 cells, from 5 μg/mL in 3-fold dilutions
T1 construct: whole, on cells; also called CHOK1细胞表面稳定表达人CLDN18.2; CHO/CLDN18.2

[2] = biological target: T1, 人CLDN18.2 (human CLDN18.2), expressed …; test: cell-based or functional assay
[3] = biological target: T1, 人CLDN18.2 (human CLDN18.2), expressed …; test: cell-based or functional assay; remark: listed apart in the source

Binder | binding result [1] | ADCC reporter (Jurkat FcγRIIIa-FcεRIaγ / NFAT-luciferase) EC50(nM), target-expressing BxPC3 cells [2] [nM] | ADCC reporter (Jurkat FcγRIIIa-FcεRIaγ / NFAT-luciferase) EC50(nM), target-expressing CHOK1 cells [2] [nM] | ADCC reporter (Jurkat FcγRIIIa-FcεRIaγ / NFAT-luciferase) EC50(nM), target-expressing NCI-N87 cells [2] [nM] | CDC EC50(nM), BxPC3 cells stably expressing human CLDN18.2 [3] [nM] | CDC EC50(nM), CHOK1 cells stably expressing human CLDN18.2 [3] [nM] | CDC EC50(nM), NCI-N87 cells stably expressing human CLDN18.2 [3] [nM]
B1 | binds | – | – | – | – | – | –
B2 | binds | – | – | – | – | – | –
B3 | – | 0.304 | 0.589 | 0.15 | 28.5 | 21.3 | 57.7
B4 | – | 0.176 | 0.712 | 0.0677 | 12.2 | 5.2 | 17.4
B5 | – | 0.106 | 0.593 | 0.0909 | 52.2 | 30.4 | 474
